Laboratory results taken from patent publication US20190375786A1, “STABLE PEPTIDES AND METHODS OF USE THEREOF” (Fred Hutchinson Cancer Research Center, priority 2016, published 2019).
Entries after “also recorded” stand apart in the source; their conditions may differ.

Key:
[1] = Combined resistance grouping of hitchin peptides (FIG. 27, from Table 2 data); format: physicochemical; settings: FIG. 27 grouping of hitchin peptides
Description: As shown by the data in TABLE 2, the tested peptides of the present disclosure show a range of resistance to proteases, reduction, and high temperature. The peptides were classified as high, medium, or low for each condition. […] For example, after a peptide is treated at 100° C., if the HPLC peak of the peptide is mostly absent as compared to HPLC peak of the peptide not treated at 100° C., then the peptide is classified as low or having low resistance to 100° C. After a peptide is treated with reducing conditions, if there is no or very minimal HPLC peak that overlaps with the HPLC peak of the peptide not treated with reducing conditions, then the peptide is classified as low or having low resistance to reducing conditions.
The peptides with the highest resistance data were further analyzed. […] The six peptides that were further tested were peptides comprising the sequences of SEQ ID NO: 27, SEQ ID NO: 24, SEQ ID NO: 6, SEQ ID NO: 10, SEQ ID NO: 12, and SEQ ID NO: 57, which were all hitchins. […] FIG. 27C is a sequence analysis of SEQ ID NO: 27, SEQ ID NO: 24, SEQ ID NO: 6, SEQ ID NO: 10, SEQ ID NO: 12, and SEQ ID NO: 57 from FIG. 27B. FIG. 27C identifies which amino acids are present at each position in SEQ ID NO: 27, SEQ ID NO: 24, SEQ ID NO: 6, SEQ ID NO: 10, SEQ ID NO: 12, and SEQ ID NO: 57. For example, at position one, all peptide sequences comprise a G amino acid residue; at position two, all peptide sequences comprise an S amino acid residue; at position three, all peptide sequences comprise either G, Q, or V amino acid, or null; and at position four, all peptide sequences comprise V, R, or K amino acid, or null. […] SEQ ID NO: 167 and SEQ ID NO: 168 describe sequences of peptides that are particularly resistant to reduction, pepsin, 75° C., and 100° C., which would typically degrade peptides. […] Additionally, SEQ ID NO: 169 describes sequences of peptides that are also particularly resistant to trypsin.

[2] = Circular dichroism in neutral, SDS and acidic buffers; format: physicochemical
Description: CD spectra were measured with a Jasco J-720W spectropolarimeter using a 1.0 mm path length cell. Lyophilized peptide samples were resuspended in ultra pure water. CD runs were carried out by diluting peptides in 20 mM phosphate buffer saline (pH 7.4), 20 mM phosphate buffer saline (pH 7.4) supplemented with 1% sodium dodecyl sulfate (SDS), or phosphate buffer saline at pH 4. Peptides were diluted to 15-25 μM in concentration. Data are shown in terms of total molar ellipticity [θ]; (deg cm^2 dmol^−1).

[3] = Resistance to reduction by reduced glutathione (GSH), HPLC; format: physicochemical; settings: 10 mM reduced glutathione (GSH); HPLC vs non-reduced peptide
Description: This example describes stability of designed or engineered peptides under reducing conditions. Peptides that are designed or engineered to interact with one or more target proteins in the cell, such as proteins in the nucleus, are exposed to reducing conditions in the cytosolic compartment of cells. Thus, it is advantageous for peptides of this disclosure to display stability in reducing conditions. Stability of peptides of this disclosure was tested in 10 mM DTT and 10 mM GSH. GSH is a more physiologically relevant reducing agent for testing peptide stability in intracellular conditions. An example of a peptide-target protein interaction is a peptide binding to a TEAD protein.

trypsin [4] = target: T1, trypsin (Sus scrofa, UniProt P00761); assay: SDPR surface display protease resistance, anti-6xHis staining, trypsin; format: cell-based; settings: HEK-293 cells, up to 40 μg/ml trypsin for 20 minutes
T1 sequence (P00761 9-231): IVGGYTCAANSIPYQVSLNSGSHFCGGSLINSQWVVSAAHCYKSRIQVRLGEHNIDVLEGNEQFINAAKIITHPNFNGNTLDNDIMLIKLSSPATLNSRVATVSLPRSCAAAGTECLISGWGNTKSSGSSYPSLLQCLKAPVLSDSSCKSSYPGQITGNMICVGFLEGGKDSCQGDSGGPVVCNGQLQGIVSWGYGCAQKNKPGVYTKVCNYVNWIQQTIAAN
Description: (§1) Soluble peptides were exposed to 500 U/mL porcine trypsin and analyzed by HPLC. Protease resistance was also assessed by using SDPR-displaying peptides. The SDPR vector is similar to the a surface display GFP FasL(SDGF) vector, but contains a C-terminal 6×His tag (SEQ ID NO: 180) and all basic or aromatic amino acid residues on the stalk removed. Protease resistance is then tested by incubation of cells displaying peptides with trypsin or chymotrypsin, followed by incubation in 10 mM DTT, and staining with an anti-6×His fluorophore-labeled antibody (“6×His” disclosed as SEQ ID NO: 180). If peptides are uncleaved, they retain the His tag and are stained with by the antibody. A control protease-sensitive knottin peptide (SK) was used as a positive control. Cells displaying peptides were treated with up to 40 μg/ml trypsin or chymotrypsin.
(§2) To determine the impact of protease treatment or reducing condition on the function of the peptides, i.e., binding activity, various binding or functional assays can be performed. […] After treatment with the protease and reducing agent, any linearized peptide product or degradation product resulting from reduction and/or proteolysis by treatment with a protease can be detected or analyzed by staining against the 6×His tag (SEQ ID NO: 180). […]

chymotrypsin = assay: SDPR surface display protease resistance, anti-6xHis staining, chymotrypsin; format: cell-based; settings: HEK-293 cells, up to 40 μg/ml chymotrypsin for 20 minutes
Description: as §1, §2

[5] = Stability in simulated gastric fluid (SGF, pH 1.05), RP-HPLC; format: physicochemical; settings: HPLC vs non-reduced peptide
Description: (§3) Peptides were first suspended in 500 ul of ddH2O to a stock concentration of 2 mg/ml. Reactions were prepared by adding 12.5 ug of peptide from the stock solution to a 10 mM solution of DTT in PBS and allowed to incubate at room temperature for 30 minutes. Other reactions were prepared with 12.5 μg peptide with or without 500 U/ml pepsin in simulated gastric fluid (SGF; pH 1.05; […] sodium chloride in 0.7% (v/v) hydrochloric acid) and were incubated for 30 minutes at 37.5° C. Some reactions were quenched with a final concentration of 100 mM Tris base and 10 mM dithiothreitol (DTT). Some reactions were performed in all of the above components, including simulated gastric fluid, pepsin, Tris, and DTT (referred to as SPTD). Reversed phase HPLC (RP-HPLC) was run on samples using an Agilent 1260 HPLC equipped with a C-18 Poroshell 120B column. Sample were analyzed by a gradient method with a mobile phase of Solvent A (water with 0.1% TFA) and Solvent B (acetonitrile with 0.1% TFA). Solvent B was ramped up from 5%-45% of the mobile phase over a period of 10 minutes. Peptides were detected at an absorbance of 214 nm and 280 nm.
This example illustrates peptide stability in biological conditions including in the presence of reducing agents, proteases, oxidative conditions, acidic conditions, and simulated gastric fluids. […] Various peptides were suspended in 500 μl of ddH2O at a stock concentration of 2 mg/ml. This was then diluted in accord with the reaction conditions to prevent adverse buffering effects. Reactions were prepared with 12.5 μg peptide dissolved in solution and, in some samples, additionally suspended in a 10 mM solution of DTT, simulated gastric fluid (pH 1.05; […] sodium chloride in 0.7% (v/v) hydrochloric acid), 500 U pepsin (5000 U/ml pepsin), 50 U trypsin (500 U/ml trypsin) with 1 mg/ml inhibitor in PBS, or a combination of any of these conditions. All protease reactions were incubated for 30 min at room temperature and then quenched. Pepsin reactions were quenched by adding Tris base to a final concentration of 0.075 M. Trypsin reactions were quenched by adding excess soybean trypsin inhibitor. RP-HPLC was then run on samples using an Agilent 1260 HPLC equipped with a C-18 Poroshell 120B column. Sample were analyzed by a gradient method with a mobile phase of Solvent A (water with 0.1% TFA) and Solvent B (acetonitrile with 0.1% TFA). Solvent B was ramped up from 5%-45% of the mobile phase over a period of 10 minutes.

pepsin [6] = target: T2, pepsin (Sus scrofa, UniProt P00791); assay: Pepsin digestion resistance in simulated gastric fluid, RP-HPLC; format: in vitro ADME, porcine; set-up: purchased Sigma Aldrich P7012; settings: HPLC
T2 sequence (P00791 60-385): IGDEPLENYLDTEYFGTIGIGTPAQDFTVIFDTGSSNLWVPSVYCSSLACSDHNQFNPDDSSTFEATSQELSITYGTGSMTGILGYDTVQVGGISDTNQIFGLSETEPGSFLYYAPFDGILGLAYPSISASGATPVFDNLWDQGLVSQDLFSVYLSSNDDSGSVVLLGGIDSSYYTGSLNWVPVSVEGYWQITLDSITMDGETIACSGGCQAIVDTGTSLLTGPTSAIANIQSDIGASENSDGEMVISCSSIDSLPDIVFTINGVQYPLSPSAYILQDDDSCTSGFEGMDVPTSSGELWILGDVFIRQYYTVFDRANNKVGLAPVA
In short: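 Digestion resistance read by reversed-phase HPLC (C-18, 0.1% TFA, 5–45% acetonitrile over 10 min; 214/280 nm) after 12.5 μg peptide spent 30 min at 37.5 °C in pH 1.05 simulated gastric fluid, with or without 500 U/ml pepsin. Some samples quenched with Tris base and DTT.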

[7] = Resistance to reduction by DTT, RP-HPLC; format: physicochemical; settings: 10 mM DTT; HPLC vs non-reduced peptide
In short: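 Peptide (12.5 μg from a 2 mg/ml stock, or 0.015 mM final in PBS) was held 30 min at room temperature with or without 10 mM DTT. Reduced and non-reduced forms were compared by C-18 RP-HPLC using a 5–45% acetonitrile/0.1% TFA gradient over 10 min, with detection at 214 and 280 nm.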

pepsin [8] = target: T2, pepsin; assay: Stability in SPTD (simulated gastric fluid, pepsin, Tris and DTT), RP-HPLC; format: in vitro ADME; settings: SGF pH 1.05 with 500 U/ml pepsin, 100 mM Tris, 10 mM DTT
Description: as §3

trypsin [9] = target: T1, trypsin; assay: Trypsin digestion resistance of soluble peptide, RP-HPLC; format: in vitro ADME, porcine; set-up: purchased Sigma Aldrich 6567; settings: 50 U trypsin (500 U/ml), 30 min at room temperature, with or without 10 mM DTT; HPLC
In short: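 Read-out was RP-HPLC (C-18, water/acetonitrile with 0.1% TFA, 5-45% over 10 min) of peptide left after trypsin treatment. Digest: 12.5 μg peptide, 500 U/ml porcine trypsin, PBS, 37.5° C for 30 min, stopped by soybean trypsin inhibitor; samples then reduced (10 mM DTT) or left non-reduced.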

Sequence: GSVFINVKCRGSPECLPKCKEAIGKSAGKCMNGKCKCYP [SEQ ID NO: 37]
- combined resistance to reduction, pepsin and elevated temperatures such as 75° C. and 100° C. [1]: not highly resistant
- secondary structure by CD in phosphate buffer saline at pH 4 ([2]; pH 4): retained its secondary structure
- secondary structure by CD in phosphate buffer saline at pH 7.2 ([2]; pH 7.2): retained its secondary structure
- secondary structure by CD in phosphate buffer saline at pH 7.2 with 1% SDS ([2]; pH 7.2, 1% sodium dodecyl sulfate): lost secondary structure

Sequence: PDEYIERAKECCKKQDIQCCLRIFDESKDPNVMLICLFCW [SEQ ID NO: 126]
- resistance to GSH reducing conditions [3]: resistant
- resistance of surface-displayed peptide to cleavage by trypsin (trypsin [4]): partially resistant
- resistance of surface-displayed peptide to cleavage by chymotrypsin (chymotrypsin): partially resistant

Sequence: GSGVPINVRCRGSRDCLDPCRRAGMRFGRCINSRCHCTP [SEQ ID NO: 31]
- stability in simulated gastric fluid / low pH (in words) [5]: highly resistant; also recorded: remained intact; also recorded: intact and resistant
- resistance to pepsin, Example 7 conditions (in words) (pepsin [6]; 500 U pepsin (5000 U/ml) in SGF, 30 min at room temperature, with or without DTT): remained intact; also recorded: resistant
- resistance to pepsin digestion (in words) (pepsin [6]; 500 U/ml pepsin (50 U per reaction) in SGF, 30 minutes at 37.5° C.): highly resistant
- resistance to reduction by DTT (in words) [7]: highly resistant; also recorded: remained intact; also recorded: intact and resistant
- resistance in SPTD (SGF, pepsin, Tris, DTT) (in words) (pepsin [8]): highly resistant
- resistance to trypsin, Example 7 conditions (in words) (trypsin [9]): remained intact; also recorded: resistant
